Experimental findings from US20260049134A1 (UNIVERSITY OF FLORIDA RESEARCH FOUNDATION, published 2026) are described below.

For assay [1], the target named is T1, CADM1-His (Acro Biosystems) (human, UniProt Q9BY67 45-374).
T1 construct: Bought; also called CADM1/IGSF4A; not shown: His tag of the bought protein
T1 sequence: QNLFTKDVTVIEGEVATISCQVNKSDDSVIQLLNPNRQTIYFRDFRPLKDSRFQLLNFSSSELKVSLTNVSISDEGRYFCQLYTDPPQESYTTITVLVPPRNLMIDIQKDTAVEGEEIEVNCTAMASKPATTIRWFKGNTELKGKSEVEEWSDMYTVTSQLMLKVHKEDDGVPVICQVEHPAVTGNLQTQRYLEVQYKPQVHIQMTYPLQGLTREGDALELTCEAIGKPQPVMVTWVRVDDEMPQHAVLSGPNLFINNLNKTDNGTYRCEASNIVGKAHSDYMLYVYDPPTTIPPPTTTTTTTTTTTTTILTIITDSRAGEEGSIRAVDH
Nature of the assay: ELISA on coated CADM1-His, 150 ng IgG1; None 0.059. The method, then: (§1) Recombinant purified ECDs (50-150 ng) of each putative target protein were coated, incubated with 150 ng of the indicated primary antibody, and binding was detected using a peroxidase-conjugated anti-human Fab secondary antibody. Heatmap represents averages of technical triplicates. (8B) Target validation via siRNA knockdown. H929 cells were transfected with siRNA pools targeting the putative antibody targets ICAM1, CADM1, and PTPRG. Cells were then subjected to cognate IgG binding analysis via flow cytometry. (NT, non-targeting siRNA).
(§2) ELISA ELISA was conducted as described previously. Briefly, 50-150 ng of antigen was coated overnight in half-area 96-well plates at 4° C., blocked with 3% BSA at 37° C. for 1 h, and 150 ng of chimeric rabbit/human IgG1 was added, incubating for 2 h at 37° C. […] After incubating at 37° C. for 15 min-1 h (depending on intensity of controls), data were acquired using a SpectraMax M5 plate reader (Molecular Devices).

The target in another assay is T2, ANXA1.
T2 construct: coated protein in the ELISA; also called ANXA1-His (R&D Systems)
T2 chain: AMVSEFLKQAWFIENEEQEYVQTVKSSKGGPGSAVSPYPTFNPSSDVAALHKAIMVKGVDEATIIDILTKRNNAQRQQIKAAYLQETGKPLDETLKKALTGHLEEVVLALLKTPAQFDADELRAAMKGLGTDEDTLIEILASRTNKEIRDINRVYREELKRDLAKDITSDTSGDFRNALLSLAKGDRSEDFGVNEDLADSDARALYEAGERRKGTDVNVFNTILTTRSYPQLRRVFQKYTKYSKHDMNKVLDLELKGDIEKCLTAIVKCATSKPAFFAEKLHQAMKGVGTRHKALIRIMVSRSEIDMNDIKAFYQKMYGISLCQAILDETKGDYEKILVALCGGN
Nature of the assay: ELISA on coated ANXA1-His, 150 ng IgG1; None 0.098. How it is done:
as §1, §2

The next assay has as its target T3, APP.
T3 construct: His-tagged; coated protein in the ELISA; also called APP-His (Acro Biosystems)
Nature of the assay: ELISA on coated APP-His, 150 ng IgG1; None 0.092. The method, then:
as §1, §2
A general note: An ELISA detects its analyte on a solid surface through an enzyme-linked reagent.

Assay [2] addresses T4, HHLA2 (B7-H7).
T4 construct: coated protein in the ELISA; also called HHLA2-Fc (R&D Systems)
T4 chain: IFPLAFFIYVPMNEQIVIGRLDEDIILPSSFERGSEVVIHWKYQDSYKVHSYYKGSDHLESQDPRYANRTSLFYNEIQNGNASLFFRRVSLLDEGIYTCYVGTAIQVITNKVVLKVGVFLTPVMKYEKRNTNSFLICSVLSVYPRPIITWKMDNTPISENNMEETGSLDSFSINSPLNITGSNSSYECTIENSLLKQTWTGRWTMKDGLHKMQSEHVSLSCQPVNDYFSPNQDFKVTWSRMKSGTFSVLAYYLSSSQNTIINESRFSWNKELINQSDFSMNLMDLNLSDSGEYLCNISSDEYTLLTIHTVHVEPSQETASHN
Description: ELISA on coated HHLA2-Fc. How it is done:
as §1, §2

The target of assay [3] is T5, GARS-His (Sino Biological) (human, UniProt P41250 37-739, limits assumed).
T5 construct: Bought; also called GARS1; glycyl-tRNA synthetase; not shown: His tag of the bought protein
T5 sequence: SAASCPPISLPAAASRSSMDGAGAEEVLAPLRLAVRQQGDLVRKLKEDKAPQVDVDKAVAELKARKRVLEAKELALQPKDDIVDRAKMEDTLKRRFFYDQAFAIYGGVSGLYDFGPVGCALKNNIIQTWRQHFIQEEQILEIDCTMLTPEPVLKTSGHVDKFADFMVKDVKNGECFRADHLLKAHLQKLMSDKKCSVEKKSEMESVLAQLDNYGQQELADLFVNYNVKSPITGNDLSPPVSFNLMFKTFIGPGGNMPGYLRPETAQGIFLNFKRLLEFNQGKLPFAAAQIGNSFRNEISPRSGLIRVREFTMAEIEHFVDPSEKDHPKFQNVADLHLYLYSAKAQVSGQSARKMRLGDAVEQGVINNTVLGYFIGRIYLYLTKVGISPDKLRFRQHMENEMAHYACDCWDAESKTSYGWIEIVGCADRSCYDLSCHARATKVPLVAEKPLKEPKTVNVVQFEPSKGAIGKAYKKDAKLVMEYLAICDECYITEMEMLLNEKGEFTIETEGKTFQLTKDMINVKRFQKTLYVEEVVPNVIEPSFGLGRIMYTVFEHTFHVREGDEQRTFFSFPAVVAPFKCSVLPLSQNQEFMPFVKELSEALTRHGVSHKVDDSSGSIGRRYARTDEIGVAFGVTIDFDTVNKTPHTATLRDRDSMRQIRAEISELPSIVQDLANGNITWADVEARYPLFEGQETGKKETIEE
Nature of the assay: ELISA on coated GARS-His, 150 ng IgG1; None 0.099. How it is done:
as §1, §2

A further assay addresses T6, SELL (L-Selectin).
T6 construct: coated protein in the ELISA; also called SELL-Fc-His (R&D Systems)
T6 chain: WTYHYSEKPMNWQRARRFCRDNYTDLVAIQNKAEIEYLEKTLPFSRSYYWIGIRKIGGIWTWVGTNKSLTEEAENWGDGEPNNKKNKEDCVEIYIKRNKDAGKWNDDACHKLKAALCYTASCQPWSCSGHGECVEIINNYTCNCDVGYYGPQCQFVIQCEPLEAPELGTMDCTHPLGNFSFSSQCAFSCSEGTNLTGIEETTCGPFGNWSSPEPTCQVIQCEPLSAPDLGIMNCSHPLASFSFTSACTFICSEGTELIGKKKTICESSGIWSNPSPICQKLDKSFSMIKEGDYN
Description: ELISA on coated SELL-Fc-His, 150 ng IgG1; None 0.096. The method, then:
as §1, §2

The target of assay [4] is T4, HHLA2 (B7-H7). Description: ELISA on coated HHLA2-Fc, 150 ng IgG1; None 0.087. How it is done: as §1, §2

B1: HW-42 chimeric rabbit-human IgG1 LA/LA/PG (antibody, V domains shown)
VH: QSVKESEGGLFKPADTLTLTCTVSGFSLSSNEISWVRQAPGEGLEYIGIIDTGGRAYYAVWARSRSTITRNTNLNTVTLKMTSLTAADTATYFCARGGVDTEWYAFSSWGPGTLVTVPS
VL: SFVLTQPASVQVNLGQTVSLTCTADTLSRRYASWYQQKPGQAPVLLIFRDTSRPSGVPDRFSGSSSGDTATLTISGAQAGDEADYYCATSDGSGSNYQYVFGGGTQLTVTG
notes: Fc-silenced (L234A/L235A/P329G) IgG1, lambda; Alexa Fluor 647-labeled in single-step flow cytometry; Cluster C-1
B1: the “ELISA Absorbance (405 nm-570 nm)” value in assay [1] came out at 0.061; in the assay with ANXA1, 0.103; in the assay with APP, 0.087; in assay [3] it was 0.099; in the assay with SELL (L-Selectin), 0.103; with HHLA2 (B7-H7) [4] it was 0.097. Besides, the binding result with HHLA2 (B7-H7) [2] is listed as “no binding (tested: 150 ng IgG1 per well)”.

B2: HW-28 chimeric rabbit-human IgG1 LA/LA/PG (antibody, V domains shown)
VH: QKQLVESGGRLVTPGTPLTLTCTASGFSLSSNAMSWVRQAPGEGLQWIGTISSGGSTYYASWAKGRFTISKTSTTVTLKMTSLTTEDTATYFCARGADLHRLWGPGTLVTVSS
VL: SFVLTQPASVQVNLGQTVSLTCTGKPLSRSFASWYQQKPGQAPVLVIYRDTSRPSGVPDRFSGSSSGNTATLTISGAQAGDEADYYCATSDGSGSSYQYVFGGGTQLTVTG
notes: Fc-silenced (L234A/L235A/P329G) IgG1, lambda; Alexa Fluor 647-labeled in single-step flow cytometry; Cluster C-45
Turning to B2, the “ELISA Absorbance (405 nm-570 nm)” value in the assay with ANXA1 worked out at 0.153; in the assay with APP it was 0.144; in assay [3], 0.628; with HHLA2 (B7-H7) [4], 0.122.

B3: HW-45 chimeric rabbit-human IgG1 LA/LA/PG (antibody, V domains shown)
VH: QKQLVESGGRLVTPGTPLTLTCTVSGFSLSSYAMGWFRQAPGKGLEWIGIINSYGSTYYASWAKGRFTISKTSTTVDLKITSPTTEDTATYFCGRRIGSARFDPWGPGTLVTVSS
VL: SFVLTQPASVQVNLGQTVSLTCTADTLSRSYASWYQQKPGQAPVLLIYRDTRRPSGVPDRFSGSSSGNTATLTISGAQAGDEADYYCATSDGSGSSYRLVFGGGTQLTVTG
notes: Fc-silenced (L234A/L235A/P329G) IgG1, lambda; Alexa Fluor 647-labeled in single-step flow cytometry; Prototype of cluster C-45
As to B3, the “ELISA Absorbance (405 nm-570 nm)” value turned out to be 0.233 with APP and 0.741 in assay [3].

B4: HW-1 chimeric rabbit-human IgG1 LA/LA/PG (antibody, V domains shown)
VH: QSLEESGGGLFKPTDTLTLTCTASGFSLGSSYAISWVRQAPGKELEWIGTIDSGRAYYARWAKSRSTITRNTNENTVTLKMTSLTAADTATYFCARDLIPTYSQDIWGPGTLVTISS
VL: SFVLTQPASVQVNLGQTVSLTCTADTLSRRYASWYQQKPGQAPVLLIYRDTSRPSGVPDRFSGSSSGNTATLTISGAQAGDEADYYCATSDGSGNSYQYVFGGGTQLTVTS
notes: Fc-silenced (L234A/L235A/P329G) IgG1, lambda; Alexa Fluor 647-labeled in single-step flow cytometry; Prototype of cluster C-1
Consider B4, for which the “ELISA Absorbance (405 nm-570 nm)” value was 0.053 in assay [1]; 0.085 with ANXA1; 0.071 with APP; 0.091 in assay [3]; 0.078 in the assay with SELL (L-Selectin); 0.075 with HHLA2 (B7-H7) [4]. In addition, in the assay with HHLA2 (B7-H7) [2], the binding result is recorded as “no binding (tested: 150 ng IgG1 per well)”.

B5: HW-70 chimeric rabbit-human IgG1 LA/LA/PG (antibody, V domains shown)
VH: QSLEESGGRLVTPGTPLTLTCTVSGFSLSSNAMSWVRQAPGKGLEWIGTIDGYGYTYYASWAKGRFTVSKTSTTVDLKITSPTTEDTATYFCAREIYLGSNFWGPGTLVTISS
VL: SFVLTQPASVQVNLGQTVSLTCTADTLSRRYASWYQQKPGQAPVLLIYRDTSRPSGVPDRFSGSSSGNTATLTISGAQAGDEADYYCATADGSGSSYQFVFGGGTQLTVTG
notes: as for B1
In the case of B5, the “ELISA Absorbance (405 nm-570 nm)” value in assay [1] came to 0.053; in the assay with ANXA1 it was 0.102; with APP, 0.089; in assay [3], 0.087; in the assay with SELL (L-Selectin), 0.09; in the assay with HHLA2 (B7-H7) [4], 0.088. The binding result with HHLA2 (B7-H7) [2] is on record as “no binding (tested: 150 ng IgG1 per well)”.

B6: HW-25 chimeric rabbit-human IgG1 LA/LA/PG (antibody, V domains shown)
VH: QSLEESGGRLVTPGTPLTLTCTVSGFSLSSYAMGWVRQAPGKGLEWIGIIDSRGSTYYATWAKGRFTISKTSTTVDLKITSPTTEDTATYFCAREDSYYYDSFNLWGPGTLVTVSS
VL: SFVLTQPASVQVNLGQTVSLTCTADTLSRRYASWYQQKPGQAPVLLIYRDTSRPSGVPDRFSGSSSGNTATLTISGAQAGDEADYYCATSDGSGSSYQCVFGGGTQLTVTG
notes: as for B1
With B6, the “ELISA Absorbance (405 nm-570 nm)” value is 0.045 in assay [1]; 0.065 in the assay with ANXA1; 0.066 with APP; 0.103 in assay [3]; 0.067 with SELL (L-Selectin); 0.066 with HHLA2 (B7-H7) [4]. The binding result with HHLA2 (B7-H7) [2] is recorded as “no binding (tested: 150 ng IgG1 per well)”.

B7: TH9-0022 (antibody, human IgG1, kappa, L234A L235A, V domains shown)
VH: QSLEESGGRLVTPGTPLTLTCTVSGFSLSSYAMNWVRQAPGKGLEWIGIINSYGSTYYASWAKGRFTISKTSTTVDLKITSPTTEDTATYFCARVTYDSYGYGYAPYGMDLWGPGTLVTVSS
VL: LVMTQTPSSTSNAVGGTVTIKCQASQSIGNVLAWYQQKPGQPPKLLIYAASTLASGVPSRVGGSRSGTEYTLTISGVQREDAATYYCLGSDSDSDIAFGGGTELEILR
notes: also called TH9-022; negative control
For B7, the “ELISA Absorbance (405 nm-570 nm)” value in assay [1] turned out to be 0.055; with ANXA1, 0.09; with APP it was 0.082; in assay [3], 0.098; in the assay with SELL (L-Selectin) it was 0.081; with HHLA2 (B7-H7) [4], 0.086. Besides, the binding result with HHLA2 (B7-H7) [2] is on record as “no binding (tested: 150 ng IgG1 per well)”.
